Molecular target: T1, human programmed death ligand 1 (PD-L1) (human, UniProt Q9NZQ7 19-290)
T1 construct: Endogenous PD-L1 on tumor, stromal and inflammatory cells in formalin-fixed, paraffin-embedded tumor tissue sections; 22C3 is described as an anti-human PD-L1 antibody; also called mature PD-L1; hPD-L1
Experiment: IHC on FFPE NSCLC tissue section

T1 sequence (Q9NZQ7 19-290): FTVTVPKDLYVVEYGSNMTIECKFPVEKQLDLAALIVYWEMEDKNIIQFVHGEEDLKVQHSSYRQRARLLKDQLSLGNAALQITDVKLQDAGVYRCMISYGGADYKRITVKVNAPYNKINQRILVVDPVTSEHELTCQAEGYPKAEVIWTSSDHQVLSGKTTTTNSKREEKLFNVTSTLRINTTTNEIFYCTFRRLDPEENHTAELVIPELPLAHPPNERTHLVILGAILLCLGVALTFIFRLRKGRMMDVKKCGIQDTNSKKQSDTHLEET

B1: monoclonal antibody 22C3 (antibody, V domains shown)
VH: QVHLQQSGAELAKPGASVKMSCKASGYTFTSYWIHWIKQRPGQGLEWIGYINPSSGYHEYNQKFIDKATLTADRSSSTAYMHLTSLTSEDSAVYYCARSGWLIHGDYYFDFWGQGTTLTVSS
VL: DIVMSQSPSSLAVSAGEKVTMTCKSSQSLLHTSTRKNYLAWYQQKPGQSPKLLIYWASTRESGVPDRFTGSGSGTDFTLTISSVQAEDLAVYYCKQSYDVVTFGAGTKLELK
notes: Whole hybridoma antibody used as primary antibody in IHC; also called MEB037.22C3; PD-L1 22C3 antibody
B1: binds.
